Source: patent US10976317B2, “Systematic discovery, maturation and extension of peptide binders to proteins” (Roche Sequencing Solutions, Inc., priority 2013, dated 2021)

Molecular target: T1, human prostate specific antigen (PSA) (Homo sapiens, UniProt P07288)
T1 construct: biotin (chemical label, NHS-PEG4-biotin on amines)
Test: PSA binding assay on 5-mer peptide array (biotin-labelled PSA, Streptavidin Cy5 staining, fluorescence signal)
Settings: 5-mer Array; rank in the list of 405 sequences with the highest average signal intensity; PSA 100 ng/ml, 25° C., 12 hrs
From the text: Array Design: 5-mer array was designed by using all combinations of 18 natural amino acids excluding cysteine and methionine, any dimer or a longer repeat of the same amino acid, as well as any peptide containing HR, RH, HK, KH, RK, KR, HP, and PQ sequences to create a library of 1,360,732 unique peptides. Extension Arrays were designed by extending sequences selected from 5-mer arrays experiments by two amino acids from both N- and C-terminus using all 20 natural amino acids. Double Substitution/Deletion Arrays were designed by extension of sequences identified in the extension array experiments with glycine (G) amino acid to make them 11-mer peptides and creating a library that includes all possible single- and double substitution/deletion variants of the original sequence.
Array Synthesis: 5-mer Arrays were synthesized with 5 cycles of synthesis using a mixture of G and S amino acids in a 3:1 ratio, respectively at the N- and C-terminus of each of the 5-mer peptide. Extension and Double Substitution/Deletion Arrays were synthesized directly without using flanking wobble synthesis.
Binding Assay: PSA labelled with biotin using EZ-Link NHS-PEG4-biotinylation kit (Thermo Fisher Sci., Inc. Rockford, Ill.) was incubated in SecureSeal hybridization chamber (Grace Bio-Labs, Bend, Ore.) at concentration 100 ng/ml in 1×TE binding buffer with 1% alkali soluble casein at 25° C. for 12 hrs. Array was washed 3× with 1×TE buffer and stained with Streptavidin Cy5 in 1× binding buffer with 1% alkali soluble casein at 25° C. for 1 hr, and washed 3× with 1×TE buffer and finally with 0.1×TE buffer and scanned using a 2 micrometer MS200 scanner (Roche/Nimblegen, Madison, Wis.).
Data analysis: Image analysis and signal extraction performed using NimbleGen DEVA software, and peptides with fluorescent signal are identified. The 5-mer sequences for the binding peptides are identified and clustered based on distances using the standard BLOSUM 62 substitution matrix as implemented by an R package ‘PEPLIB’ (see, White et al., 2013, cited above). The distances of the 5-mer peptides are plotted on the first two components of a PCA plot. Consensus motifs for each cluster are reported in the graph.

T1 sequence (P07288 25-261): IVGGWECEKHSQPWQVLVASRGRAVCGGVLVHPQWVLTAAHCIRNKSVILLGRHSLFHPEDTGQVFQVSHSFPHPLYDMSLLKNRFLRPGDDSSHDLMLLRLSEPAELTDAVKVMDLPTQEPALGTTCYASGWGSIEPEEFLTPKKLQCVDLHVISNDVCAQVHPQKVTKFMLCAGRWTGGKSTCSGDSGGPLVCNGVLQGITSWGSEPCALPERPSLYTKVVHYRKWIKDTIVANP

| Substance | rank by binding signal to PSA |
| --- | --- |
| WEVHL | 28 |
| FEVYL | 1 |
| WTVYA | 3 |
| RSILY | 307 |
